Data as given in EP4538286A1 (Adlai Nortye Biopharma Co., Ltd., dated 2025).

T1: human CTLA4 protein (human, UniProt P16410 37-162, limits assumed)
T1 construct: bought protein coated on the ELISA plate; also called human CTLA4 antigen
T1 sequence (looked up): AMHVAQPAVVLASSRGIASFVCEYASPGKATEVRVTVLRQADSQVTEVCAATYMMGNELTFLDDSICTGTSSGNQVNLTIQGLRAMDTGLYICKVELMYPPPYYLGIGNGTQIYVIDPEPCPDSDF

B1: Abs-247 (other)
heavy: VIHVTKEVKEVATLSCGHNVSVEELAQTRIYWQKEKKMVLTMMSGDANIWPEYKNRTIFDITNNLSIVYLELRPSDEGTYECLVLKYEKDAFKREHLAEVTLSVKADGGGGSGGGGSGGGGSGGGGSGEVQLLESGGGLVQPGGSLRLSCAASGFTFSSYAMSWVRQAPGKGLEWVSGISGSGGFTYYADSVKGRFTISRDNSKNTLYLQMNSLRAEDTAVYYCAKPPRGYNYGPFDYWGQGTLVTVSSASTKGPSVFPLAPCSRSTSESTAALGCLVKDYFPEPVTVSWNSGALTSGVHTFPAVLQSSGLYSLSSVVTVPSSSLGTKTYTCNVDHKPSNTKVDKRVESKYGPPCPPCPAPEFLGGPSVFLFPPKPKDTLMISRTPEVTCVVVDVSQEDPEVQFNWYVDGVEVHNAKTKPREEQFNSTYRVVSVLAVLHQDWLNGKEYKCKVSNKGLPSSIEKTISKAKGQPREPQVYTLPPSQEEMTKNQVSLTCLVKGFYPSDIAVAWESNGQPENNYKTTPPVLDSDGSFFLYSRLTVDKSRWQEGNVFSCSVMHEALHAHYTQKSLSLSLGK
light: SYVLTQPPSVSVAPGQTARITCGGNNIGSKSVHWYQQKPGQAPVLVVYDDSDRPSGIPERFSGSNSGNTATLTISRVEAGDEADYYCQVWDSSSDHVVFGGGTKLTVLGQPKAAPSVTLFPPSSEELQANKATLVCLISDFYPGAVTVAWKADSSPVKAGVETTTPSKQSNNKYAASSYLSLTPEQWKSHRSYSCQVTHEGSTVEKTVAPTECS
notes: the paragraph that names the antibody is followed; also called CD80 IgV mutant M47A/I69Y/A71E/V83L-sugemalimab fusion
B2: Abs-253 (other)
heavy: VIHVTKEVKEVATLSCGHNVSVEELAQTRIYWQKEKKMVLTMMSGDMNIWPEYKNRTIFDITNNLSIVYLELRPSDEGTYECVVLKYEKDAFKREHLAEVTLSVKADGGGGSGGGGSGGGGSGGGGSGEVQLLESGGGLVQPGGSLRLSCAASGFTFSSYAMSWVRQAPGKGLEWVSGISGSGGFTYYADSVKGRFTISRDNSKNTLYLQMNSLRAEDTAVYYCAKPPRGYNYGPFDYWGQGTLVTVSSASTKGPSVFPLAPCSRSTSESTAALGCLVKDYFPEPVTVSWNSGALTSGVHTFPAVLQSSGLYSLSSVVTVPSSSLGTKTYTCNVDHKPSNTKVDKRVESKYGPPCPPCPAPEFLGGPSVFLFPPKPKDTLMISRTPEVTCVVVDVSQEDPEVQFNWYVDGVEVHNAKTKPREEQFNSTYRVVSVLAVLHQDWLNGKEYKCKVSNKGLPSSIEKTISKAKGQPREPQVYTLPPSQEEMTKNQVSLTCLVKGFYPSDIAVAWESNGQPENNYKTTPPVLDSDGSFFLYSRLTVDKSRWQEGNVFSCSVMHEALHAHYTQKSLSLSLGK
light: SYVLTQPPSVSVAPGQTARITCGGNNIGSKSVHWYQQKPGQAPVLVVYDDSDRPSGIPERFSGSNSGNTATLTISRVEAGDEADYYCQVWDSSSDHVVFGGGTKLTVLGQPKAAPSVTLFPPSSEELQANKATLVCLISDFYPGAVTVAWKADSSPVKAGVETTTPSKQSNNKYAASSYLSLTPEQWKSHRSYSCQVTHEGSTVEKTVAPTECS
notes: the paragraph that names the antibody is followed; also called CD80 IgV mutant I69Y/A71E-sugemalimab fusion
B3: Abs-251 (other)
heavy: VIHVTKEVKEVATLSCGHNVSVEELAQTRIYWQKEKKMVLTMMSGDMNIWPEYKNRTIFDITNNLSIVYLELRPSDEGTYECLVLKYEKDAFKREHLAEVTLSVKADGGGGSGGGGSGGGGSGGGGSGEVQLLESGGGLVQPGGSLRLSCAASGFTFSSYAMSWVRQAPGKGLEWVSGISGSGGFTYYADSVKGRFTISRDNSKNTLYLQMNSLRAEDTAVYYCAKPPRGYNYGPFDYWGQGTLVTVSSASTKGPSVFPLAPCSRSTSESTAALGCLVKDYFPEPVTVSWNSGALTSGVHTFPAVLQSSGLYSLSSVVTVPSSSLGTKTYTCNVDHKPSNTKVDKRVESKYGPPCPPCPAPEFLGGPSVFLFPPKPKDTLMISRTPEVTCVVVDVSQEDPEVQFNWYVDGVEVHNAKTKPREEQFNSTYRVVSVLAVLHQDWLNGKEYKCKVSNKGLPSSIEKTISKAKGQPREPQVYTLPPSQEEMTKNQVSLTCLVKGFYPSDIAVAWESNGQPENNYKTTPPVLDSDGSFFLYSRLTVDKSRWQEGNVFSCSVMHEALHAHYTQKSLSLSLGK
light: SYVLTQPPSVSVAPGQTARITCGGNNIGSKSVHWYQQKPGQAPVLVVYDDSDRPSGIPERFSGSNSGNTATLTISRVEAGDEADYYCQVWDSSSDHVVFGGGTKLTVLGQPKAAPSVTLFPPSSEELQANKATLVCLISDFYPGAVTVAWKADSSPVKAGVETTTPSKQSNNKYAASSYLSLTPEQWKSHRSYSCQVTHEGSTVEKTVAPTECS
notes: the paragraph that names the antibody is followed; also called CD80 IgV mutant I69Y/A71E/V83L-sugemalimab fusion
B4: Abs-249 (other)
heavy: VIHVTKEVKEVATLSCGHNVSVEELAQTRIYWQKEKKMVLTMMSGDANIWPEYKNRTIFDITNNLSIVYLELRPSDEGTYECVVLKYEKDAFKREHLAEVTLSVKADGGGGSGGGGSGGGGSGGGGSGEVQLLESGGGLVQPGGSLRLSCAASGFTFSSYAMSWVRQAPGKGLEWVSGISGSGGFTYYADSVKGRFTISRDNSKNTLYLQMNSLRAEDTAVYYCAKPPRGYNYGPFDYWGQGTLVTVSSASTKGPSVFPLAPCSRSTSESTAALGCLVKDYFPEPVTVSWNSGALTSGVHTFPAVLQSSGLYSLSSVVTVPSSSLGTKTYTCNVDHKPSNTKVDKRVESKYGPPCPPCPAPEFLGGPSVFLFPPKPKDTLMISRTPEVTCVVVDVSQEDPEVQFNWYVDGVEVHNAKTKPREEQFNSTYRVVSVLAVLHQDWLNGKEYKCKVSNKGLPSSIEKTISKAKGQPREPQVYTLPPSQEEMTKNQVSLTCLVKGFYPSDIAVAWESNGQPENNYKTTPPVLDSDGSFFLYSRLTVDKSRWQEGNVFSCSVMHEALHAHYTQKSLSLSLGK
light: SYVLTQPPSVSVAPGQTARITCGGNNIGSKSVHWYQQKPGQAPVLVVYDDSDRPSGIPERFSGSNSGNTATLTISRVEAGDEADYYCQVWDSSSDHVVFGGGTKLTVLGQPKAAPSVTLFPPSSEELQANKATLVCLISDFYPGAVTVAWKADSSPVKAGVETTTPSKQSNNKYAASSYLSLTPEQWKSHRSYSCQVTHEGSTVEKTVAPTECS
notes: the paragraph that names the antibody is followed; also called CD80 IgV mutant M47A/I69Y/A71E-sugemalimab fusion
B5: Abs-250 (other)
heavy: VIHVTKEVKEVATLSCGHNVSVEELAQTRIYWQKEKKMVLTMMSGDANIWPEYKNRTIFDITNNLSIVWLELRPSDEGTYECVVLKYEKDAFKREHLAEVTLSVKADGGGGSGGGGSGGGGSGGGGSGEVQLLESGGGLVQPGGSLRLSCAASGFTFSSYAMSWVRQAPGKGLEWVSGISGSGGFTYYADSVKGRFTISRDNSKNTLYLQMNSLRAEDTAVYYCAKPPRGYNYGPFDYWGQGTLVTVSSASTKGPSVFPLAPCSRSTSESTAALGCLVKDYFPEPVTVSWNSGALTSGVHTFPAVLQSSGLYSLSSVVTVPSSSLGTKTYTCNVDHKPSNTKVDKRVESKYGPPCPPCPAPEFLGGPSVFLFPPKPKDTLMISRTPEVTCVVVDVSQEDPEVQFNWYVDGVEVHNAKTKPREEQFNSTYRVVSVLAVLHQDWLNGKEYKCKVSNKGLPSSIEKTISKAKGQPREPQVYTLPPSQEEMTKNQVSLTCLVKGFYPSDIAVAWESNGQPENNYKTTPPVLDSDGSFFLYSRLTVDKSRWQEGNVFSCSVMHEALHAHYTQKSLSLSLGK
light: SYVLTQPPSVSVAPGQTARITCGGNNIGSKSVHWYQQKPGQAPVLVVYDDSDRPSGIPERFSGSNSGNTATLTISRVEAGDEADYYCQVWDSSSDHVVFGGGTKLTVLGQPKAAPSVTLFPPSSEELQANKATLVCLISDFYPGAVTVAWKADSSPVKAGVETTTPSKQSNNKYAASSYLSLTPEQWKSHRSYSCQVTHEGSTVEKTVAPTECS
notes: the paragraph that names the antibody is followed; also called CD80 IgV mutant M47A/I69W/A71E-sugemalimab fusion
B6: Abs-252 (other)
heavy: VIHVTKEVKEVATLSCGHNVSVEELAQTRIYWQKEKKMVLTMMSGDMNIWPEYKNRTIFDITNNLSIVWLELRPSDEGTYECLVLKYEKDAFKREHLAEVTLSVKADGGGGSGGGGSGGGGSGGGGSGEVQLLESGGGLVQPGGSLRLSCAASGFTFSSYAMSWVRQAPGKGLEWVSGISGSGGFTYYADSVKGRFTISRDNSKNTLYLQMNSLRAEDTAVYYCAKPPRGYNYGPFDYWGQGTLVTVSSASTKGPSVFPLAPCSRSTSESTAALGCLVKDYFPEPVTVSWNSGALTSGVHTFPAVLQSSGLYSLSSVVTVPSSSLGTKTYTCNVDHKPSNTKVDKRVESKYGPPCPPCPAPEFLGGPSVFLFPPKPKDTLMISRTPEVTCVVVDVSQEDPEVQFNWYVDGVEVHNAKTKPREEQFNSTYRVVSVLAVLHQDWLNGKEYKCKVSNKGLPSSIEKTISKAKGQPREPQVYTLPPSQEEMTKNQVSLTCLVKGFYPSDIAVAWESNGQPENNYKTTPPVLDSDGSFFLYSRLTVDKSRWQEGNVFSCSVMHEALHAHYTQKSLSLSLGK
light: SYVLTQPPSVSVAPGQTARITCGGNNIGSKSVHWYQQKPGQAPVLVVYDDSDRPSGIPERFSGSNSGNTATLTISRVEAGDEADYYCQVWDSSSDHVVFGGGTKLTVLGQPKAAPSVTLFPPSSEELQANKATLVCLISDFYPGAVTVAWKADSSPVKAGVETTTPSKQSNNKYAASSYLSLTPEQWKSHRSYSCQVTHEGSTVEKTVAPTECS
notes: the paragraph that names the antibody is followed; also called CD80 IgV mutant I69W/A71E/V83L-sugemalimab fusion
B7: Abs-248 (other)
heavy: VIHVTKEVKEVATLSCGHNVSVEELAQTRIYWQKEKKMVLTMMSGDANIWPEYKNRTIFDITNNLSIVWLELRPSDEGTYECLVLKYEKDAFKREHLAEVTLSVKADGGGGSGGGGSGGGGSGGGGSGEVQLLESGGGLVQPGGSLRLSCAASGFTFSSYAMSWVRQAPGKGLEWVSGISGSGGFTYYADSVKGRFTISRDNSKNTLYLQMNSLRAEDTAVYYCAKPPRGYNYGPFDYWGQGTLVTVSSASTKGPSVFPLAPCSRSTSESTAALGCLVKDYFPEPVTVSWNSGALTSGVHTFPAVLQSSGLYSLSSVVTVPSSSLGTKTYTCNVDHKPSNTKVDKRVESKYGPPCPPCPAPEFLGGPSVFLFPPKPKDTLMISRTPEVTCVVVDVSQEDPEVQFNWYVDGVEVHNAKTKPREEQFNSTYRVVSVLAVLHQDWLNGKEYKCKVSNKGLPSSIEKTISKAKGQPREPQVYTLPPSQEEMTKNQVSLTCLVKGFYPSDIAVAWESNGQPENNYKTTPPVLDSDGSFFLYSRLTVDKSRWQEGNVFSCSVMHEALHAHYTQKSLSLSLGK
light: SYVLTQPPSVSVAPGQTARITCGGNNIGSKSVHWYQQKPGQAPVLVVYDDSDRPSGIPERFSGSNSGNTATLTISRVEAGDEADYYCQVWDSSSDHVVFGGGTKLTVLGQPKAAPSVTLFPPSSEELQANKATLVCLISDFYPGAVTVAWKADSSPVKAGVETTTPSKQSNNKYAASSYLSLTPEQWKSHRSYSCQVTHEGSTVEKTVAPTECS
notes: the paragraph that names the antibody is followed; also called CD80 IgV mutant M47A/I69W/A71E/V83L-sugemalimab fusion

Tests used:
[1] = target: T1, human CTLA4 protein; assay: ELISA, plate-coated human CTLA4
[2] = target: T2, human CD28 protein (human, UniProt P10747 19-152); assay: ELISA, plate-coated human CD28
T2 construct: bought protein coated on the ELISA plate; also called human CD28 antigen
T2 sequence (P10747 19-152 limits assumed): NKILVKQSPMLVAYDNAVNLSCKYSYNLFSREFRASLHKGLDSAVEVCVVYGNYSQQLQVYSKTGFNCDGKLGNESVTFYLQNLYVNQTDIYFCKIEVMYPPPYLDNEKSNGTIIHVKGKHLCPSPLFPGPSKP

Row | Binder | binding result [1] | binding result [2]
1 | B1 | no binding | no binding
2 | B2 | no binding | no binding
3 | B3 | no binding | no binding
4 | B4 | no binding | no binding
5 | B5 | no binding | no binding
6 | B6 | no binding | no binding
7 | B7 | no binding | no binding
